Source: the supplement of paper PMC11246515
± gives the standard deviation of the averaged measurements.

Experiment: total protein half-life in vivo (active degradation + dilution); higher = more stable protein
[1] = E. coli NCM3722 delta-hslV, growth: N-lim chemostat, doubling time 6 h
[2] = E. coli NCM3722 delta-smpB, growth: N-lim chemostat, doubling time 6 h
[3] = E. coli NCM3722 delta-clpP delta-lon delta-hslV, growth: N-lim chemostat, doubling time 6 h
[4] = E. coli NCM3722 delta-clpP, growth: N-lim chemostat, doubling time 6 h
[5] = E. coli NCM3722 delta-lon, growth: N-lim chemostat, doubling time 6 h
[6] = wild type E. coli NCM3722, growth: C-lim chemostat, doubling time 3 h
[7] = wild type E. coli NCM3722, growth: C-lim chemostat, doubling time 6 h
[8] = wild type E. coli NCM3722, growth: C-lim chemostat, doubling time 12 h
[9] = wild type E. coli NCM3722, growth: N-lim chemostat, doubling time 6 h
[10] = wild type E. coli NCM3722, growth: N-lim chemostat, doubling time 12 h
[11] = wild type E. coli NCM3722, growth: P-lim chemostat, doubling time 12 h
[12] = wild type E. coli NCM3722, growth: P-lim chemostat, doubling time 6 h

Sequence | total protein half-life in vivo [1] [h] | total protein half-life in vivo [2] [h] | total protein half-life in vivo [3] [h] | total protein half-life in vivo [4] [h] | total protein half-life in vivo [5] [h] | total protein half-life in vivo [6] [h] | total protein half-life in vivo [7] [h] | total protein half-life in vivo [8] [h] | total protein half-life in vivo [9] [h] | total protein half-life in vivo [10] [h] | total protein half-life in vivo [11] [h] | total protein half-life in vivo [12] [h]
MGQSSQPHELGGGLKSRHVTMLSIAGVIGASLFVGSSVAIAEAGPAVLLAYLFAGLLVVMIMRMLAEMAVATPDTGSFSTYADKAIGRWAGYTIGWLYWWFWVLVIPLEANIAAMILHSWVPGIPIWLFSLVITLALTGSNLLSVKNYGEFEFWLALCKVIAILAFIFLGAVAISGFYPYAEVSGISRLWDSGGFMPNGFGAVLSAMLITMFSFMGAEIVTIAAAESDTPEKHIVRATNSVIWRISIFYLCSIFVVVALIPWNMPGLKAVGSYRSVLELLNIPHAKLIMDCVILLSVTSCLNSALYTASRMLYSLSRRGDAPAVMGKINRSKTPYVAVLLSTGAAFLTVVVNYYAPAKVFKFLIDSSGAIALLVYLVIAVSQLRMRKILRAEGSEIRLRMWLYPWLTWLVIGFITFVLVVMLFRPAQQLEVISTGLLAIGIICTVPIMARWKKLVLWQKTPVHNTR | 0.975 | 1.1 | – | – | – | – | – | – | – | – | – | –
MSNNALQTIINARLPGEEGLWQIHLQDGKISAIDAQSGVMPITENSLDAEQGLVIPPFVEPHIHLDTTQTAGQPNWNQSGTLFEGIERWAERKALLTHDDVKQRAWQTLKWQIANGIQHVRTHVDVSDATLTALKAMLEVKQEVAPWIDLQIVAFPQEGILSYPNGEALLEEALRLGADVVGAIPHFEFTREYGVESLHKTFALAQKYDRLIDVHCDEIDDEQSRFVETVAALAHHEGMGARVTASHTTAMHSYNGAYTSRLFRLLKMSGINFVANPLVNIHLQGRFDTYPKRRGITRVKEMLESGINVCFGHDDVFDPWYPLGTANMLQVLHMGLHVCQLMGYGQINDGLNLITHHSARTLNLQDYGIAAGNSANLIILPAENGFDALRRQVPVRYSVRGGKVIASTQPAQTTVYLEQPEAIDYKR | 5.57 ± 0.45 | 5.64 ± 0.32 | 6.27 ± 0.14 | 5.838 ± 0.02 | 6.13 ± 0.073 | 2.9 ± 0.17 | 5.8 ± 0.1 | 14.3 ± 0.34 | 5.43 ± 0.29 | 12.3 ± 1.4 | 12.7 ± 0.35 | –
MTTQLEQAWELAKQRFAAVGIDVEEALRQLDRLPVSMHCWQGDDVSGFENPEGSLTGGIQATGNYPGKARNASELRADLEQAMRLIPGPKRLNLHAIYLESDTPVSRDQIKPEHFKNWVEWAKANQLGLDFNPSCFSHPLSADGFTLSHADDSIRQFWIDHCKASRRVSAYFGEQLGTPSVMNIWIPDGMKDITVDRLAPRQRLLAALDEVISEKLNPAHHIDAVESKLFGIGAESYTVGSNEFYMGYATSRQTALCLDAGHFHPTEVISDKISAAMLYVPQLLLHVSRPVRWDSDHVVLLDDETQAIASEIVRHDLFDRVHIGLDFFDASINRIAAWVIGTRNMKKALLRALLEPTAELRKLEAAGDYTARLALLEEQKSLPWQAVWEMYCQRHDTPAGSEWLESVRAYEKEILSRRG | – | 2.94 ± 0.21 | 3.97 ± 0.74 | 2.97 ± 0.12 | 3.14 ± 0.07 | – | 5.85 ± 1.9 | 9.47 | – | 3.73 | 8.02 ± 5 | 5.31 ± 0.18
MLLAGAIFVLTIVLVIWQPKGLGIGWSATLGAVLALVTGVVHPGDIPVVWNIVWNATAAFIAVIIISLLLDESGFFEWAALHVSRWGNGRGRLLFTWIVLLGAAVAALFANDGAALILTPIVIAMLLALGFSKGTTLAFVMAAGFIADTASLPLIVSNLVNIVSADFFGLGFREYASVMVPVDIAAIVATLVMLHLYFRKDIPQNYDMALLKSPAEAIKDPATFKTGWVVLLLLLVGFFVLEPLGIPVSAIAAVGALILFVVAKRGHAINTGKVLRGAPWQIVIFSLGMYLVVYGLRNAGLTEYLSGVLNVLADNGLWAATLGTGFLTAFLSSIMNNMPTVLVGALSIDGSTASGVIKEAMVYANVIGCDLGPKITPIGSLATLLWLHVLSQKNMTISWGYYFRTGIIMTLPVLFVTLAALALRLSFTL [P0AB93] | 6.25 | – | – | – | – | – | – | – | 5.83 | 12.1 | 13.8 ± 1.1 | –
MRICSDQPCIVLLTEKDVWIRVNGKEPISLKANHMALLNCENNIIDVSSLNNTLVAHISHDIIKDYLRFLNKDLSQIPVWQRSATPILTLPCLTPDVFRVAAQHSMMPAETESEKERTRALLFTVLSRFLDSKKFVSLMMYMLRNCVSDSVYQIIESDIHKDWNLSMVASCLCLSPSLLKKKLKSENTSYSQIITTCRMRYAVNELMMDGKNISQVSQSCGYNSTSYFISVFKDFYGMTPLHYVSQHRERTVA | – | 1.24 | – | – | – | – | – | – | – | – | – | –
MERVSITERPDWREKAHEYGFNFHTMYGEPYWCEDAYYKLTLAQVEKLEEVTAELHQMCLKVVEKVIASDELMTKFRIPKHTWSFVRQSWLTHQPSLYSRLDLAWDGTGEPKLLENNADTPTSLYEAAFFQWIWLEDQLNAGNLPEGSDQFNSLQEKLIDRFVELREQYGFQLLHLTCCRDTVEDRGTIQYLQDCATEAEIATEFLYIDDIGLGEKGQFTDLQDQVISNLFKLYPWEFMLREMFSTKLEDAGVRWLEPAWKSIISNKALLPLLWEMFPNHPNLLPAYFAEDDHPQMEKYVVKPIFSREGANVSIIENGKTIEAAEGPYGEEGMIVQQFHPLPKFGDSYMLIGSWLVNDQPAGIGIREDRALITQDMSRFYPHIFVE [P0ADT5] | 4.25 ± 0.46 | 4.3 ± 0.17 | – | 4.7 ± 0.6 | 4.93 ± 0.34 | 3.13 ± 0.18 | 5.78 ± 1 | 9.63 ± 0.61 | 4.46 ± 0.15 | 8.2 ± 1 | 11.5 ± 0.2 | 5.65 ± 0.24
MPKLRLIGLTLLALSATAVSHAEETRYVSDELNTWVRSGPGDHYRLVGTVNAGEEVTLLQTDANTNYAQVKDSSGRTAWIPLKQLSTEPSLRSRVPDLENQVKTLTDKLTNIDNTWNQRTAEMQQKVAQSDSVINGLKEENQKLKNELIVAQKKVDAASVQLDDKQRTIIMQWFMYGGGVLGLGLLLGLVLPHLIPSRKRKDRWMN [P0ADT8] | 6.56 ± 0.2 | 5.94 ± 0.49 | – | – | 6.43 ± 0.12 | 3.03 ± 0.052 | 5.84 ± 0.24 | 11.1 ± 0.11 | 5.83 ± 0.15 | 11.8 ± 0.99 | 12.5 ± 0.39 | 5.51 ± 0.2
MALLNVDKLSVHFGDESAPFRAVDRISYSVKQGEVVGIVGESGSGKSVSSLAIMGLIDYPGRVMAEKLEFNGQDLQRISEKERRNLVGAEVAMIFQDPMTSLNPCYTVGFQIMEAIKVHQGGNKSTRRQRAIDLLNQVGIPDPASRLDVYPHQLSGGMSQRVMIAMAIACRPKLLIADEPTTALDVTIQAQIIELLLELQQKENMALVLITHDLALVAEAAHKIIVMYAGQVVETGDAHAIFHAPRHPYTQALLRALPEFAQDKERLASLPGVVPGKYDRPNGCLLNPRCPYATDRCRAEEPALNMLADGRQSKCHYPLDDAGRPTL [P0AAG0] | 6.21 ± 0.75 | 6.33 ± 0.16 | 6.72 ± 1.2 | 6.26 ± 0.28 | 7.31 ± 0.78 | 3.12 ± 0.29 | 6.95 ± 0.84 | 12 ± 0.99 | 5.94 ± 0.23 | 12.6 ± 0.25 | 13.3 ± 1.2 | 6.27 ± 0.38
MTTLKLDTLSDRIKAHKNALVHIVKPPVCTERAQHYTEMYQQHLDKPIPVRRALALAHHLANRTIWIKHDELIIGNQASEVRAAPIFPEYTVSWIEKEIDDLADRPGAGFAVSEENKRVLHEVCPWWRGQTVQDRCYGMFTDEQKGLLATGIIKAEGNMTSGDAHLAVNFPLLLEKGLDGLREEVAERRSRINLTVLEDLHGEQFLKAIDIVLVAVSEHIERFAALAREMAATETRESRRDELLAMAENCDLIAHQPPQTFWQALQLCYFIQLILQIESNGHSVSFGRMDQYLYPYYRRDVELNQTLDREHAIEMLHSCWLKLLEVNKIRSGSHSKASAGSPLYQNVTIGGQNLVDGQPMDAVNPLSYAILESCGRLRSTQPNLSVRYHAGMSNDFLDACVQVIRCGFGMPAFNNDEIVIPEFIKLGIEPQDAYDYAAIGCIETAVGGKWGYRCTGMSFINFARVMLAALEGGHDATSGKVFLPQEKALSAGNFNNFDEVMDAWDTQIRYYTRKSIEIEYVVDTMLEENVHDILCSALVDDCIERAKSIKQGGAKYDWVSGLQVGIANLGNSLAAVKKLVFEQGAIGQQQLAAALADDFDGLTHEQLRQRLINGAPKYGNDDDTVDTLLARAYQTYIDELKQYHNPRYGRGPVGGNYYAGTSSISANVPFGAQTMATPDGRKAHTPLAEGASPASGTDHLGPTAVIGSVGKLPTAAILGGVLLNQKLNPATLENESDKQKLMILLRTFFEVHKGWHIQYNIVSRETLLDAKKHPDQYRDLVVRVAGYSAFFTALSPDAQDDIIARTEHML | – | – | 4.17 | – | – | – | – | – | – | – | – | –
MKKLITANDIREAHARGEQAMSVVLRASIITPEAREVADLLGFTITECDESIPVTASVPASVPADKTESQRIRETIIAQLPEGQFTESLVAQLMEKVMKEKQSLEQGAMQPSFKSVTGKGGIKVIDGSSVKFGRFDGAEPHCVGLTDLVTGDDGSSMAAGFMQWENAFFPWTLNYDEIDMVLEGELHVRHEGQTMIAKAGDVMFIPKGSSIEFGTTSSVKFLYVAWPANWQSL | 1.44 ± 0.19 | 1.55 ± 0.36 | 5.08 ± 0.37 | 1.62 | 2.42 ± 0.052 | 2.12 ± 0.14 | 4.18 ± 0.51 | 5.42 ± 1.1 | 1.84 | 2.19 | 3.93 | 2.44
